{
  "source": "patent US20200165324A1",
  "about": "(INTERNATIONAL AIDS VACCINE INITIATIVE, published 2020)",
  "binders": {"B1": {"name": "NC-Cow1 (antibody)", "VH": "QVQLRESGPSLMKPSQTLSLTCTVSGSSLNDKSVGWVRQAPGKALQWLGSVDTSGNTDYNPGLKSRLSITKDNSKSRISLTVTGMTTEDSATYYCITAHQKTNKKECPEDYTYNPRCPQQYGWSDCDCMGDRFGGYCRQDGCSNYIHRSTYEWYVSAWGQGLLVTVSS", "VL": "SYELTQPSSVSGSLGQRVSVTCSGSSSNVGNGYVSWYQLIPGSAPRTIIYGDTSRASGVPERFSGSRSGNTATLTISSLQAEDEADFFCASPDDSSSNAVFGSGTTLTVL", "notes": "detected with anti-human IgG; also called d238-P1B4_NC-Cow1; mature NC-Cow1 HC + mature NC-Cow1 LC"}, "B2": {"name": "NC-Cow2 Fab (Fab)", "VH": "KVQLRESGPSLVKPSQTLSLTCMVSGSSLSDKAVGWVRQAPGKALEWLGIISAGGNRGYNSGLRSRLTISKDNSKNEVSLRVRSVTTEDSATYFCGTVHQKTQRKPICPDGYSDDSTLRYYSRCSDRDCWRCTGTTYYDTCQCGTYTWIDTHELHVDAWGQGLLVTVSS", "VL": "B1 VL with S1Q, Y2A, E3V, T5N, V20I, I48L, E61D, F87Y, P92A, D93E", "notes": "Fab used for negative stain electron microscopy; also called cow Fab NC-Cow2"}, "B3": {"name": "NC-Cow1 Fab (Fab)", "VH": "B1 VH", "VL": "B1 VL", "notes": "Fab used for negative stain electron microscopy; also called cow Fab NC-Cow1"}},
  "key": {"[1]": {"molecular_target": "BG505 Env on BG505 pseudovirus (HIV isolate BG505)", "assay": "cell-based or functional assay"}, "BG505 K282A [2]": {"molecular_target": "BG505 K282A", "assay": "cell-based or functional assay"}, "[3]": {"molecular_target": "JR-CSF Env on JR-CSF pseudovirus", "assay": "cell-based or functional assay"}, "BG505 N279A [4]": {"molecular_target": "BG505 N279A", "assay": "cell-based or functional assay"}, "[5]": {"molecular_target": "T1, BG505 WT recombinant gp120 protein (HIV isolate BG505)", "T1 construct": "also called WT protein", "assay": "ELISA on recombinant gp120"}, "[6]": {"molecular_target": "BG505 D368R recombinant gp120 protein", "assay": "ELISA on recombinant gp120"}, "[7]": {"molecular_target": "T2, BG505 SOSIP.664 gp140 trimer (HIV isolate BG505)", "T2 construct": "Soluble Env trimer made in HEK293F cells with co-transfected furin (cleaved gp120 and gp41 ectodomain, disulfide-linked); His- and Avi-tagged (biotinylated) versions were also made; also called BG505 SOSIP trimer; BG505 SOSIP.664-His gp140", "assay": "complex used as bait in flow cytometry sorting"}, "BG505 K282A [8]": {"molecular_target": "BG505 K282A", "assay": "ELISA, gp120 captured from lysed virions"}, "BG505 G472A": {"molecular_target": "BG505 G472A", "assay": "ELISA, gp120 captured from lysed virions"}, "[9]": {"molecular_target": "T3, JR-CSF gp120 captured from lysed virions (HIV isolate JR-CSF, UniProt P20871 32-503)", "T3 construct": "gp120 from NP40-lysed pseudovirus, captured by an anti-C5 gp120 antibody", "assay": "ELISA, gp120 captured from lysed virions"}, "BG505 N279A [10]": {"molecular_target": "BG505 N279A", "assay": "ELISA, gp120 captured from lysed virions"}, "Jo-1": {"molecular_target": "T4, Jo-1 (human, UniProt P12081 1-509, limits assumed)", "T4 sequence (looked up)": "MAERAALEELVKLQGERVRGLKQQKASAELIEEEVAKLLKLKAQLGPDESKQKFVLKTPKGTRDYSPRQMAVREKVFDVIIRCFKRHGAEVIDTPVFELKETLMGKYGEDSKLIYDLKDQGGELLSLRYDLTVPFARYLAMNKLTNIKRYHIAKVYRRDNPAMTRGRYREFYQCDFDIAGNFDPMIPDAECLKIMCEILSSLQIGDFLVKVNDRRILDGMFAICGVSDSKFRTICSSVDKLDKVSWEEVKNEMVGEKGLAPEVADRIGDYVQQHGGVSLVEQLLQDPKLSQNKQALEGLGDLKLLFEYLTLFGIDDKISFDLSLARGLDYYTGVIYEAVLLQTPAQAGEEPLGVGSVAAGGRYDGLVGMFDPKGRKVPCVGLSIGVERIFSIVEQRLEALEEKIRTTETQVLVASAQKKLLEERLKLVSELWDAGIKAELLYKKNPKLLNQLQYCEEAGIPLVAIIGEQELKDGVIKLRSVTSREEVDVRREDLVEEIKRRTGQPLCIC", "assay": "single autoantigen ELISA (Aesku), cut-off of the manufacturer", "description": "(§1) Single antigen ELISA assays for SSA/Ro, SS-B/La, Sm, ribonucleoprotein (RNP), Jo-1, double-stranded DNA, centromere B, and histones were purchased from Aesku Diagnostics (Oakland, Calif.). The 96 wells were separately coated with these eight cellular and nuclear antigens for the qualitative detection of mAbs reactivity. A cut-off calibrator was provided by the manufacturer. The negative control was diluted human serum."}, "centromere B": {"molecular_target": "T5, centromere B (human, UniProt P07199 1-599)", "T5 sequence (looked up)": "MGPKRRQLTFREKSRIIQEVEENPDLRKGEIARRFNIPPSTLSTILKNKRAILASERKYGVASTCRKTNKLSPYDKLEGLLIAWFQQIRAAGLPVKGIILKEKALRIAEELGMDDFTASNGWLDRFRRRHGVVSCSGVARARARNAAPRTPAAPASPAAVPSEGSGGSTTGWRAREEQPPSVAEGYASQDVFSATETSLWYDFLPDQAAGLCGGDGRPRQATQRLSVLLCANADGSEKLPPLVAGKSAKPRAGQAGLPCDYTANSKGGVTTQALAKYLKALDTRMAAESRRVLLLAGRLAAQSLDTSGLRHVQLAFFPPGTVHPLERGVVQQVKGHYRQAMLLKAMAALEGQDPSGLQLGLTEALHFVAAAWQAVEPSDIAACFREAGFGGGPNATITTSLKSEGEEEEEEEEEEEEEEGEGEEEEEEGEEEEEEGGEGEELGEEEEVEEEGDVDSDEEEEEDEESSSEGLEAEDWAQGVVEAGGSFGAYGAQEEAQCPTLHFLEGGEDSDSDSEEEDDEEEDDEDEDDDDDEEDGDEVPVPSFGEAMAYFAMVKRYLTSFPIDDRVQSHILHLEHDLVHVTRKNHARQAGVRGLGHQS", "assay": "single autoantigen ELISA (Aesku), cut-off of the manufacturer", "description": "as §1"}, "SS-B/La": {"molecular_target": "T6, SS-B/La (human, UniProt P05455 1-408, limits assumed)", "T6 sequence (looked up)": "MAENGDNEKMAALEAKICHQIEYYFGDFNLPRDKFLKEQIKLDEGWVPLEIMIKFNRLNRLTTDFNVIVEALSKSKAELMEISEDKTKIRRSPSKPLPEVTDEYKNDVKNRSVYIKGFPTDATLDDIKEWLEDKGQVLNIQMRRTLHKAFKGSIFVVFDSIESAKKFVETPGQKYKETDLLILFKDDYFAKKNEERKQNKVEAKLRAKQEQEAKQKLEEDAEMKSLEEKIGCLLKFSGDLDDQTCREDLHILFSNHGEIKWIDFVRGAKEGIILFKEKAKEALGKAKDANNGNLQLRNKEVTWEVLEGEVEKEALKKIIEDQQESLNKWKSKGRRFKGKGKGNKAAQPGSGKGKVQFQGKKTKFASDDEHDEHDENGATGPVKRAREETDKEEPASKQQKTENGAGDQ", "assay": "single autoantigen ELISA (Aesku), cut-off of the manufacturer", "description": "as §1"}, "[11]": {"molecular_target": "T2, BG505 SOSIP.664 gp140 trimer", "assay": "single particle negative stain electron microscopy"}},
  "note": "Positions count from the first letter of the chain named.",
  "data": [
    {"binder": "B1", "values": [
      {"measurement": "IC50, pseudovirus neutralization", "setting": "[1]", "value": 6, "unit": "ng/mL"},
      {"measurement": "IC50, pseudovirus neutralization", "setting": "BG505 K282A [2]", "value": 0.02, "unit": "µg/mL"},
      {"measurement": "IC50, pseudovirus neutralization", "setting": "[3]", "value": 0.821, "unit": "µg/mL"},
      {"measurement": "IC50, pseudovirus neutralization", "setting": "BG505 N279A [4]", "value": 0.012, "unit": "µg/mL"},
      {"measurement": "EC50 (read off the curve)", "setting": "[5]", "value": "~0.06", "unit": "µg/mL"},
      {"measurement": "EC50 (read off the curve)", "setting": "[6]", "value": "~0.04", "unit": "µg/mL"},
      {"measurement": "binding result", "setting": "[7]", "value": "binds"},
      {"measurement": "EC50", "setting": "BG505 K282A [8]", "value": 1.18, "unit": "µg/mL"},
      {"measurement": "EC50", "setting": "BG505 G472A", "value": 0.37, "unit": "µg/mL"},
      {"measurement": "EC50", "setting": "[9]", "value": 0.075, "unit": "µg/mL"},
      {"measurement": "EC50", "setting": "BG505 N279A [10]", "value": 0.11, "unit": "µg/mL"},
      {"measurement": "binding result", "setting": "Jo-1", "value": "no binding (tested: 100 µg/ml)"},
      {"measurement": "binding result", "setting": "centromere B", "value": "no binding (tested: 100 µg/ml)"},
      {"measurement": "binding result", "setting": "SS-B/La", "value": "no binding (tested: 100 µg/ml)"}
    ]},
    {"binder": "B2", "values": [
      {"measurement": "binding result", "setting": "[11]", "value": "binds"}
    ]},
    {"binder": "B3", "values": [
      {"measurement": "binding result", "setting": "[11]", "value": "binds"}
    ]}
  ]
}
